The values that follow are results of earlier work, collected in paper PMC4115291 (Nature communications, 2014).

The subject of the data set is mice.

Consider β-Diguetoxin-Dc1a, for which the “effect in mice, injected intracerebroventricularly (in words)” value (1.0 mg/kg intracerebroventricularly) is given as “no effect”. The “effect in mice, injected intraperitoneally (in words)” value (4.1 mg/kg intraperitoneally) is “no effect”.
